These results are taken from publication PMC4046507 (2014).

This assay addresses T1, proteolipoprotein (PLP), substituted analog peptide on I-Ag7 (mouse, substituted analog of PLP 56-70 carrying lysine for tyrosine at positions 57 and 59 (residues worked out from the printed peptide and this description; the analog's own residues are not given)).
T1 peptide: DKEKLINVIHAFQYV
Nature of the assay: cytokine release.

B1: Th2-derived TCRαβ transgenic receptor (TRAV17 TRAJ50 / TRBV31 TRBJ2-3) (TCR)
alpha TRAV17 TRAJ50 CDR3: CALEGIASSSFSKLVF
beta TRBV31 TRBJ2-3 CDR3: CAWSLGGGAETLYF
B1: the binding result is given as “recognises”.
